Source: patent US20210024620A1

Assays:
[1] = target: biotinylated human FcRn (human) (UniProt P55899); assay: Biacore SPR, pH 7.4
[2] = target: biotinylated human FcRn (human) (UniProt P55899); assay: Biacore SPR, pH 6.0
[3] = target: biotinylated human FcRn (human) (UniProt P55899); assay: Biacore, pH 6.0, apparent KD
[4] = target: biotinylated human FcRn (human) (UniProt P55899); assay: Biacore SPR, pH 7.4, 1000 nM antibody
rat FcRn (rat) [5] = target: rat FcRn (rat) (UniProt P13599); assay: Biacore SPR, pH 7.4
rat FcRn (rat), sequence (P13599 23-298 limits assumed, chain 1 of 2): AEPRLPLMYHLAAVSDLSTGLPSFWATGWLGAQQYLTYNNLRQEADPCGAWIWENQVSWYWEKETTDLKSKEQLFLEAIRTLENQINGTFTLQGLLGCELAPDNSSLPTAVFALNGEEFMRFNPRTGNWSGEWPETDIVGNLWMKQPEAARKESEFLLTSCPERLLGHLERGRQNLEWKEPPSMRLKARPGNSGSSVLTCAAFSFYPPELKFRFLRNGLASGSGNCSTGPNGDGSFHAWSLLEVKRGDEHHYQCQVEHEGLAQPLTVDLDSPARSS
rat FcRn (rat), sequence (P07151 21-119 limits assumed, chain 2 of 2, further chain): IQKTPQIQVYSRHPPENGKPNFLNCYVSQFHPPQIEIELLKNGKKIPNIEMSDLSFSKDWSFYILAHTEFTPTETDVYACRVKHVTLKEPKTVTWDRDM

[6] = target: biotinylated human FcRn (p51 subunit residues 24-297 with C-terminal Avi-tag; beta2-microglobulin residues 21-119) (human) (UniProt P55899); assay: Biacore SPR, pH 6.0
rat FcRn (rat) [7] = target: rat FcRn (rat) (UniProt P13599); assay: Biacore SPR, pH 6.0
[8] = target: biotinylated human FcRn (p51 subunit residues 24-297 with C-terminal Avi-tag; beta2-microglobulin residues 21-119) (human) (UniProt P55899); assay: Biacore SPR, pH 7.4, steady state
[9] = target: biotinylated human FcRn (p51 subunit residues 24-297 with C-terminal Avi-tag; beta2-microglobulin residues 21-119) (human) (UniProt P55899); assay: Biacore; inverse ratio (RU at pH 7.4 over affinity at pH 6.0)
[10] = target: biotinylated human FcRn (p51 subunit residues 24-297 with C-terminal Avi-tag; beta2-microglobulin residues 21-119) (human) (UniProt P55899); assay: Biacore; affinity at pH 6.0 (M^-1) over steady state RU at pH 7.4
rat FcRn (rat) [11] = target: rat FcRn (rat) (UniProt P13599); assay: Biacore, pH 6.0, apparent KD
rat FcRn (rat) [12] = target: rat FcRn (rat) (UniProt P13599); assay: Biacore SPR, pH 7.4, 1000 nM antibody
[13] = target: FcRn immobilised on the FcRn affinity column (biotinylated cynoFcRn in one experiment, biotinylated hFcRn in another); assay: FcRn affinity chromatography, linear pH gradient; species of the immobilised FcRn not given
[14] = target: biotinylated human FcRn (human) (UniProt P55899); assay: Biacore SPR, pH 6.0; remark: listed apart in the source

Row | Steady State RU [1] | Kd [2] | Steady State RU (rat FcRn (rat) [5]) | Ka [6] | Kd (rat FcRn (rat) [7]) | Steady State Binding, pH 7.4 (RU) [8] | Ratio (pH 6.0/pH 7.4) [9] | Ratio (pH 6.0/pH 7.4) [10] | Kd (rat FcRn (rat) [11]) | Steady State RU (rat FcRn (rat) [12]) | FcRn affinity column elution pH [13] | Substance | further results
1 | 22.2 RU | 165 nM |  |  |  |  |  |  |  |  |  | mAb1 N434F (antibody; other documents disagree on this pair) | Kd [3]: 165 nM; Steady State RU [4]: 20.1 RU
2 | 34.2 RU | 42.9 nM | 62.5 RU | 2.33e+07 M⁻¹ | 3.89 nM | 34.2 RU | 1.47e-06 | 681000 |  |  |  | mAb1 MTQF (T307Q/N434F) (antibody) | koff [2]: 0.0246 s⁻¹; kon [2]: 574000 M⁻¹ s⁻¹; koff (rat FcRn (rat) [7]): 0.0004 s⁻¹; kon (rat FcRn (rat) [7]): 104000 M⁻¹ s⁻¹
3 |  |  |  | 2.96e+07 M⁻¹ |  | 57.7 RU | 1.95e-06 | 513000 |  |  |  | mAb1 YDTF (M252Y/T256D/N434F) (antibody) | 
4 |  |  |  |  | 132 nM |  |  |  | 132 nM | 23.1 RU | 7.61 pH | mAb1 T307A (antibody) | Steady State RU [4]: 5.2 RU
5 |  |  |  | 6.62e+06 M⁻¹ |  | 55.3 RU |  |  |  |  |  | mAb1 MDQF (T256D/T307Q/N434F) (antibody) | 
6 |  | 3100 nM | 50.5 RU |  | 25 nM |  |  |  | 25 nM | 57.7 RU | 7.88 pH | mAb1 M252Y (antibody) | Kd [14]: > 3000 nM; Kd [3]: 3100 nM
7 |  |  |  |  | 1140 nM |  |  |  | 1140 nM | 10.3 RU | 7.39 pH | mAb1 Y436W (antibody) | Steady State RU [4]: 3.7 RU
8 |  |  |  | 6.41e+06 M⁻¹ |  | 69.6 RU | 1.09e-05 | 92100 |  |  |  | mAb1 YEWN (M252Y/T256E/T307W) (antibody) | 
9 |  |  |  |  | 279 nM |  |  |  | 279 nM | 15.3 RU | 7.4 pH | mAb1 T307M (antibody) | Steady State RU [4]: 4.4 RU
10 | 23.3 RU | 78.2 nM | 59 RU | 1.28e+07 M⁻¹ | 7.53 nM | 23.3 RU |  | 549000 |  |  |  | mAb1 METF (T256E/N434F) (antibody) | koff [2]: 0.0419 s⁻¹; kon [2]: 536000 M⁻¹ s⁻¹; koff (rat FcRn (rat) [7]): 0.00081 s⁻¹; kon (rat FcRn (rat) [7]): 108000 M⁻¹ s⁻¹; Ratio [9]: 1.82e-06
11 |  |  |  | 5.65e+07 M⁻¹ |  | 59.9 RU | 1.06e-06 | 943000 |  |  |  | mAb1 YTQF (M252Y/T307Q/N434F) (antibody) | 
12 |  |  |  |  | 6310 nM |  |  |  | 6310 nM | 27.7 RU | 7.18 pH | mAb1 E380C (antibody) | Steady State RU [4]: 5.7 RU
13 |  |  |  | 2.81e+07 M⁻¹ |  | 47.1 RU | 1.68e-06 | 597000 |  |  |  | mAb1 MDWF (T256D/T307W/N434F) (antibody) | 
14 |  |  |  |  | 190 nM |  |  |  | 190 nM | 20.4 RU | 7.39 pH | mAb1 K288N (antibody) | 
15 |  |  |  | 5.62e+07 M⁻¹ |  | 41.9 RU | 7.46e-07 | 1.34e+06 |  |  |  | mAb1 MEWF (T256E/T307W/N434F) (antibody) | 
16 |  | 499 nM | 23.4 RU | 2e+06 M⁻¹ | 10.7 nM |  |  |  |  |  |  | mAb1 MEQN (T256E/T307Q) (antibody) | 
17 |  |  |  | 3.69e+07 M⁻¹ |  | 49.4 RU |  | 747000 |  |  |  | mAb1 MDQY (T256D/T307Q/N434Y) (antibody) | Ratio [9]: 1.34e-06
18 | 37.2 RU | 21.5 nM | 69.6 RU | 4.65e+07 M⁻¹ | 0.62 nM | 37.2 RU | 8e-07 | 1.25e+06 |  |  |  | mAb1 MTWY (T307W/N434Y) (antibody) | koff [2]: 0.0317 s⁻¹; kon [2]: 1.48e+06 M⁻¹ s⁻¹; koff (rat FcRn (rat) [7]): 0.0003 s⁻¹; kon (rat FcRn (rat) [7]): 480000 M⁻¹ s⁻¹
19 | 26.8 RU | 62.6 nM | 62.2 RU | 1.6e+07 M⁻¹ | 7.71 nM | 26.8 RU |  | 597000 |  |  |  | mAb1 METY (T256E/N434Y) (antibody) | koff [2]: 0.0393 s⁻¹; kon [2]: 628000 M⁻¹ s⁻¹; koff (rat FcRn (rat) [7]): 0.00098 s⁻¹; kon (rat FcRn (rat) [7]): 127000 M⁻¹ s⁻¹
20 |  |  |  |  | 194 nM |  |  |  | 194 nM | 4.3 RU | 7.56 pH | mAb1 N434P (antibody) | Steady State RU [4]: 3.5 RU

Row | Steady State RU [1] | Kd [2] | Steady State RU (rat FcRn (rat) [5]) | Ka [6] | Kd (rat FcRn (rat) [7]) | Steady State Binding, pH 7.4 (RU) [8] | Ratio (pH 6.0/pH 7.4) [9] | Ratio (pH 6.0/pH 7.4) [10] | Kd (rat FcRn (rat) [11]) | Steady State RU (rat FcRn (rat) [12]) | FcRn affinity column elution pH [13] | Substance | further results
21 |  | 323 nM | 33 RU | 3.1e+06 M⁻¹ | 10.6 nM |  |  |  |  |  |  | mAb1 MEWN (T256E/T307W) (antibody) | 
22 |  |  |  | 142000 M⁻¹ |  |  |  |  |  |  |  | mAb1 MEQF (T256E/T307Q/N434F) (antibody) | 
23 |  |  |  | 1.01e+07 M⁻¹ |  | 25.9 RU | 2.56e-06 | 390000 |  |  |  | mAb1 YDWN (M252Y/T256D/T307W) (antibody) | 
24 | 43.8 RU | 18 nM | 79.3 RU | 5.56e+07 M⁻¹ | 0.29 nM | 43.8 RU |  | 1.27e+06 |  |  |  | mAb1 YTTF (M252Y/N434F) (antibody) | koff [2]: 0.023 s⁻¹; kon [2]: 1.27e+06 M⁻¹ s⁻¹; koff (rat FcRn (rat) [7]): 0.00012 s⁻¹; kon (rat FcRn (rat) [7]): 403000 M⁻¹ s⁻¹; Ratio [9]: 7.88e-07
25 | 29.2 RU | 29.9 nM | 63 RU | 3.34e+07 M⁻¹ | 1.78 nM | 29.2 RU | 8.74e-07 | 1.14e+06 |  |  |  | mAb1 MDTF (T256D/N434F) (antibody) | koff [2]: 0.029 s⁻¹; kon [2]: 968000 M⁻¹ s⁻¹; koff (rat FcRn (rat) [7]): 0.00039 s⁻¹; kon (rat FcRn (rat) [7]): 218000 M⁻¹ s⁻¹
26 |  |  |  | 6.54e+07 M⁻¹ |  | 62.6 RU | 9.57e-07 | 1.04e+06 |  |  |  | mAb1 YTWF (M252Y/T307W/N434F) (antibody) | 
27 |  |  |  |  | 233 nM |  |  |  | 233 nM | 17.4 RU | 7.22 pH | mAb1 Y436N (antibody) | Steady State RU [4]: 3.6 RU
28 |  |  |  | 3.34e+07 M⁻¹ |  | 22.6 RU | 6.77e-07 | 1.48e+06 |  |  |  | mAb1 YETY (M252Y/T256E/N434Y) (antibody) | 
29 |  |  |  | 7.04e+07 M⁻¹ |  | 46.6 RU | 6.62e-07 | 1.51e+06 |  |  |  | mAb1 MEWY (T256E/T307W/N434Y) (antibody) | 
30 | 38.4 RU | 32.4 nM | 63 RU | 3.09e+07 M⁻¹ | 4.11 nM | 38.4 RU | 1.24e-06 | 805000 |  |  |  | mAb1 MTQY (T307Q/N434Y) (antibody) | koff [2]: 0.0202 s⁻¹; kon [2]: 622000 M⁻¹ s⁻¹; koff (rat FcRn (rat) [7]): 0.00048 s⁻¹; kon (rat FcRn (rat) [7]): 116000 M⁻¹ s⁻¹
31 |  |  |  |  | 131 nM |  |  |  | 131 nM | 21.9 RU | 7.61 pH | mAb1 T307F (antibody) | Steady State RU [4]: 4.9 RU
32 |  |  |  | 2.38e+07 M⁻¹ |  | 38.6 RU |  | 617000 |  |  |  | mAb1 MEQY (T256E/T307Q/N434Y) (antibody) | 
33 | 30.5 RU | 38.2 nM | 65.1 RU | 2.62e+07 M⁻¹ | 2.7 nM | 30.5 RU |  |  |  |  |  | mAb1 MTWF (T307W/N434F) (antibody) | koff (rat FcRn (rat) [7]): 0.00057 s⁻¹
34 | 10.6 RU | 278 nM | 49.2 RU | 3.6e+06 M⁻¹ | 4.11 nM | 10.6 RU | 2.94e-06 | 340000 |  |  |  | mAb1 YTQN (M252Y/T307Q) (antibody) | koff [2]: 0.096 s⁻¹; kon [2]: 345000 M⁻¹ s⁻¹; koff (rat FcRn (rat) [7]): 0.00105 s⁻¹; kon (rat FcRn (rat) [7]): 255000 M⁻¹ s⁻¹
35 |  |  |  | 6.33e+07 M⁻¹ |  | 71.5 RU | 1.13e-06 | 885000 |  |  |  | mAb1 YTQY (M252Y/T307Q/N434Y) (antibody) | 
36 | 37.1 RU | 15.6 nM | 71.6 RU | 6.41e+07 M⁻¹ | 0.6 nM | 37.1 RU |  | 1.73e+06 |  |  |  | mAb1 MDTY (T256D/N434Y) (antibody) | koff [2]: 0.0285 s⁻¹; kon [2]: 1.83e+06 M⁻¹ s⁻¹; koff (rat FcRn (rat) [7]): 0.00025 s⁻¹; kon (rat FcRn (rat) [7]): 413000 M⁻¹ s⁻¹
37 |  |  |  |  | 149 nM |  |  |  | 149 nM | 21.9 RU | 7.33 pH | mAb1 K288D (antibody) | Steady State RU [4]: 3.8 RU
38 |  |  |  |  | 131 nM |  |  |  | 131 nM | 16.3 RU | 7.33 pH | mAb1 Y436H (antibody) | Steady State RU [4]: 3.6 RU
39 | 4.5 RU |  | 17 RU |  | 113 nM |  |  |  | 113 nM | 23 RU | 7.63 pH | mAb1 T256E (antibody) | Kd [14]: > 3000 nM; Steady State RU [4]: 4.8 RU
